Laboratory results published in PMC12866752, “Computational Design and Glycoengineering of Interferon‐Lambda for Nasal Prophylaxis Against Respiratory Viruses” (Advanced Science, 2025).

Target: T1, recombinant ectodomain of human IFN-λ receptor 1 (hIFN-λR1) (human, UniProt Q8IU57 21-228)
T1 construct: for the receptor neither is said; also called IFNLR1; source: recombinant; plasmids transfected into Expi293-F cells; purification of the receptor not described
T1 sequence (looked up): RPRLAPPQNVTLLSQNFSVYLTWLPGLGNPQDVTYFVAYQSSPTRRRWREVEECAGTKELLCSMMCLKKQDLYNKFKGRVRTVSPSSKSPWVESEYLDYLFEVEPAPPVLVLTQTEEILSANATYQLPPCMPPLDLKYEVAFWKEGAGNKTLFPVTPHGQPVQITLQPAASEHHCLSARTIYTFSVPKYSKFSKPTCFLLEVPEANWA
Experiment: SPR; Biacore T200; His-tagged hIFN-λ3-WT or hIFN-λ3-DE1 immobilised on a Series S NTA chip to about 200 RU; analyte hIFN-λR1 ectodomain at 6.25, 12.5 and 25 nM, 60 s at 10 µL/min, 120 s dissociation; 1X PBS-P+ with 50 nM EDTA; global fit to a 1:1 model
Details: both partners purified

binding result: binds
B1: wild-type human interferon-λ3 (hIFN-λ3-WT), His-tagged (ligand, UniProt Q8IZI9 22-196, looked up)
chain: VPVARLRGALPDARGCHIAQFKSLSPQELQAFKRAKDALEESLLLKDCKCRSRLFPRTWDLRQLQVRERPVALEAELALTLKVLEATADTDPALGDVLDQPLHTLHHILSQLRACIQPQPTAGPRTRGRLHHWLHRLQEAPKKESPGCLEASVTFNLFRLLTRDLNCVASGDLCV
notes: human IFN-λ3, full-length cDNA in a modified pcDNA3.1 with a TEV site and C-terminal 6xHis tag; also called wild-type hIFN-λ3; source: Expi293-F cells, transfected, from the culture supernatant, purified (Ni-NTA, SEC); not shown: His6, C-terminal, kept
